Molecular target: T1, phosphofructokinase beta subunit Pfk2p (S. cerevisiae, UniProt P16862 1-959)
T1 sequence (looked up): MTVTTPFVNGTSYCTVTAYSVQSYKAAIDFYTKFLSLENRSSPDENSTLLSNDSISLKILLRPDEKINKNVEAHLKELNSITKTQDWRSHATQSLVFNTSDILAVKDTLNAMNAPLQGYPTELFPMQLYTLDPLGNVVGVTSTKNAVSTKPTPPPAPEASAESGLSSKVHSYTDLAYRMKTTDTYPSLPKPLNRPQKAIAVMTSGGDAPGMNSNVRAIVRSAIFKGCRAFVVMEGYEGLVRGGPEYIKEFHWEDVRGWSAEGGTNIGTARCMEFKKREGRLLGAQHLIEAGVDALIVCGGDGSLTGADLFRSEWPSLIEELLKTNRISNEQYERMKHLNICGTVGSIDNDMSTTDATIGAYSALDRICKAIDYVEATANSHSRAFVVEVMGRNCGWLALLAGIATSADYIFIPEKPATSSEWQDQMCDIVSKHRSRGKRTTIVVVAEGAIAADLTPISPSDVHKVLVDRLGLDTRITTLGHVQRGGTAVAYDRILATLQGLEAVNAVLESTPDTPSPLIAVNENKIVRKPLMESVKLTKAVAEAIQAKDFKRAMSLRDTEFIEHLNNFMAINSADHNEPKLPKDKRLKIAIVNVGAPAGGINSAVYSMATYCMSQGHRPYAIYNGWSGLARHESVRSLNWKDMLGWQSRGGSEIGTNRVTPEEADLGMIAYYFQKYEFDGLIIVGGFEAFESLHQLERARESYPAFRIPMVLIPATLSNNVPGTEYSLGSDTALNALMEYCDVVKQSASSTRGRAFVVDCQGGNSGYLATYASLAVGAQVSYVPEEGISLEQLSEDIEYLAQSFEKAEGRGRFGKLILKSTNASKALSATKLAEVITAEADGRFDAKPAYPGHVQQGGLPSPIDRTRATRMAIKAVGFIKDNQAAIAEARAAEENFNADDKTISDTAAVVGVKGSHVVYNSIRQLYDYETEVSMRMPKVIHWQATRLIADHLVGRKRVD
Assay: cell-based or functional assay

B1: phosphofructokinase alpha subunit Pfk1p (enzyme, S. cerevisiae, UniProt P16861 1-987, looked up)
chain: MQSQDSCYGVAFRSIITNDEALFKKTIHFYHTLGFATVKDFNKFKHGENSLLSSGTSQDSLREVWLESFKLSEVDASGFRIPQQEATNKAQSQGALLKIRLVMSAPIDETFDTNETATITYFSTDLNKIVEKFPKQAEKLSDTLVFLKDPMGNNITFSGLANATDSAPTSKDAFLEATSEDEIISRASSDASDLLRQTLGSSQKKKKIAVMTSGGDSPGMNAAVRAVVRTGIHFGCDVFAVYEGYEGLLRGGKYLKKMAWEDVRGWLSEGGTLIGTARSMEFRKREGRRQAAGNLISQGIDALVVCGGDGSLTGADLFRHEWPSLVDELVAEGRFTKEEVAPYKNLSIVGLVGSIDNDMSGTDSTIGAYSALERICEMVDYIDATAKSHSRAFVVEVMGRHCGWLALMAGIATGADYIFIPERAVPHGKWQDELKEVCQRHRSKGRRNNTIIVAEGALDDQLNPVTANDVKDALIELGLDTKVTILGHVQRGGTAVAHDRWLATLQGVDAVKAVLEFTPETPSPLIGILENKIIRMPLVESVKLTKSVATAIENKDFDKAISLRDTEFIELYENFLSTTVKDDGSELLPVSDRLNIGIVHVGAPSAALNAATRAATLYCLSHGHKPYAIMNGFSGLIQTGEVKELSWIDVENWHNLGGSEIGTNRSVASEDLGTIAYYFQKNKLDGLIILGGFEGFRSLKQLRDGRTQHPIFNIPMCLIPATVSNNVPGTEYSLGVDTCLNALVNYTDDIKQSASATRRRVFVCEVQGGHSGYIASFTGLITGAVSVYTPEKKIDLASIREDITLLKENFRHDKGENRNGKLLVRNEQASSVYSTQLLADIISEASKGKFGVRTAIPGHVQQGGVPSSKDRVTASRFAVKCIKFIEQWNKKNEASPNTDAKVLRFKFDTHGEKVPTVEHEDDSAAVICVNGSHVSFKPIANLWENETNVELRKGFEVHWAEYNKIGDILSGRLKLRAEVAALAAENK
Q: How did the “kcat of phosphofructokinase, Pfk1p:Pfk2p co-expressed and co-purified (spectrophotometric coupled assay, 30 °C)” value turn out when B1 was run?
A: 210 s⁻¹

From paper PMC3764422, “A model of yeast glycolysis based on a consistent kinetic characterisation of all its enzymes” (Febs Letters, 2013)
